Reference: patent publication US20240317895A1

Experiments:
[1] = target: PT linker-SpyCatcher-His (Streptococcus pyogenes); assay: depletion of SpyTag-GA (15 mg/g resin) from supernatant, conditions of Example 4.3; SpyCatcher modified epoxy carrier, batch 1
[2] = target: PT linker-SpyCatcher-His (Streptococcus pyogenes); assay: depletion of SpyTag-GA (15 mg/g resin) from supernatant, conditions of Example 4.3; SpyCatcher modified epoxy carrier, batch 2
[3] = target: PT linker-SpyCatcher-His (Streptococcus pyogenes); assay: depletion of SpyTag-GA (15 mg/g resin) from supernatant, conditions of Example 4.3; SpyCatcher modified epoxy carrier, batch 3
[4] = target: PT linker-SpyCatcher-His (Streptococcus pyogenes); assay: depletion of SpyTag-GA (15 mg/g resin) from supernatant, conditions of Example 4.3; SpyCatcher modified epoxy carrier, batch 4
[5] = target: PT linker-SpyCatcher-His (Streptococcus pyogenes); assay: depletion of SpyTag-GA (15 mg/g resin) from supernatant, conditions of Example 4.3; SpyCatcher modified epoxy carrier, batch 5
[6] = target: PT linker-SpyCatcher-His (Streptococcus pyogenes); assay: depletion of purified SpyTag-GA (15 mg/g carrier) from supernatant, SDS-PAGE densitometry; SpyCatcher-LX-1000EP; pH 7.0, 25 C, 2 h
[7] = target: PT linker-SpyCatcher-His (Streptococcus pyogenes); assay: depletion of SpyTag-GA (10 mg/g carrier) from E. coli lysate supernatant, SDS-PAGE densitometry; SpyCatcher on HFA001 epoxy carrier
[8] = target: PT linker-SpyCatcher-His (Streptococcus pyogenes); assay: depletion of SpyTag-GA (10 mg/g carrier) from E. coli lysate supernatant, SDS-PAGE densitometry; SpyCatcher on ECR8204 epoxy carrier
[9] = target: PT linker-SpyCatcher-His (Streptococcus pyogenes); assay: depletion of SpyTag-GA (10 mg/g carrier) from E. coli lysate supernatant, SDS-PAGE densitometry; SpyCatcher on ECR8285 epoxy carrier
[10] = target: PT linker-SpyCatcher-His (Streptococcus pyogenes); assay: depletion of SpyTag-GA (10 mg/g carrier) from E. coli lysate supernatant, SDS-PAGE densitometry; SpyCatcher on LX-103B epoxy carrier
[11] = target: PT linker-SpyCatcher-His (Streptococcus pyogenes); assay: depletion of SpyTag-GA (10 mg/g carrier) from E. coli lysate supernatant, SDS-PAGE densitometry; SpyCatcher on LX-1000EP epoxy carrier
[12] = target: PT linker-SpyCatcher-His (Streptococcus pyogenes); assay: depletion of SpyTag-GA (2.0 mg/g carrier) from E. coli lysate supernatant, SDS-PAGE densitometry; SpyCatcher-LX-1000EP; pH 7.0, 25 C, 2 h
[13] = target: PT linker-SpyCatcher-His (Streptococcus pyogenes); assay: depletion of SpyTag-GA (10 mg/g carrier) from E. coli lysate supernatant, SDS-PAGE densitometry; SpyCatcher on LX-107S epoxy carrier (blocking control without SpyCatcher 72.5)

## SpyTag-GS linker-GA-His fusion protein of a SpyTag and glutaryl-7-amidocephalosporanic acid acylase (from UniProt P07662 30-720) (enzyme)
[1]
  Immobilization Efficiency (%): 94.7%
[2]
  Immobilization Efficiency (%): 92.2%
[3]
  Immobilization Efficiency (%): 90.9%
[4]
  Immobilization Efficiency (%): 86.6%
[5]
  Immobilization Efficiency (%): 96.9%
[6]
  Immobilization Efficiency (%): 91.5%
[7]
  Immobilization Efficiency (%): 79.4%
[8]
  Immobilization Efficiency (%): 52.1%
[9]
  Immobilization Efficiency (%): 57.4%
[10]
  Immobilization Efficiency (%): 77%
[11]
  Immobilization Efficiency (%): 77.6%
[12]
  Immobilization Efficiency (%): 86.2%
[13]
  Immobilization Efficiency (%): 49.1%
